What was measured:
HeLa Kyoto [1] = test: solubility in G1/S (NP-40 vs SDS abundance) (log2 ratio); higher = more soluble; settings: cell cycle stage: G1/S
HeLa Kyoto [2] = test: solubility change mitosis vs G1/S (difference of NP-40 vs SDS log2 ratios) (log2 ratio difference); higher = more soluble in mitosis
HeLa Kyoto [3] = test: thermal stability score vs G1/S (z-score of summed log2 fold changes over temperatures); higher = more thermally stable than in G1/S
HeLa Kyoto [4] = test: melting temperature (median over replicates), in situ; higher = more thermally stable
[5] = cell cycle stage: early G1 (4.5 h after nocodazole release)
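Throughout, for melting temperature (median over replicates), in situ: HeLa Kyoto cells synchronized by double thymidine or nocodazole block, proteins quantified by TMT10plex mass spectrometry, three independent biological replicates.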
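Throughout, for solubility change mitosis vs G1/S (difference of NP-40 vs SDS log2 ratios): synchronized HeLa Kyoto cells (double thymidine block for G1/S, nocodazole release for mitosis), protein amounts in NP-40 versus SDS lysates quantified by mass spectrometry, three biological replicates.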
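Throughout, for solubility in G1/S (NP-40 vs SDS abundance): HeLa Kyoto cells arrested at G1/S by double thymidine block, proteins quantified by TMT10plex mass spectrometry in mild NP-40 versus SDS extracts, three biological replicates.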
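Throughout, for thermal stability score vs G1/S (z-score of summed log2 fold changes over temperatures): synchronized HeLa Kyoto cells, proteins quantified by TMT10plex mass spectrometry, three biological replicates, mitosis taken 0.5 h after nocodazole release, G1/S directly after double thymidine block.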

Sequence of MAT2A (chain, as listed by the source): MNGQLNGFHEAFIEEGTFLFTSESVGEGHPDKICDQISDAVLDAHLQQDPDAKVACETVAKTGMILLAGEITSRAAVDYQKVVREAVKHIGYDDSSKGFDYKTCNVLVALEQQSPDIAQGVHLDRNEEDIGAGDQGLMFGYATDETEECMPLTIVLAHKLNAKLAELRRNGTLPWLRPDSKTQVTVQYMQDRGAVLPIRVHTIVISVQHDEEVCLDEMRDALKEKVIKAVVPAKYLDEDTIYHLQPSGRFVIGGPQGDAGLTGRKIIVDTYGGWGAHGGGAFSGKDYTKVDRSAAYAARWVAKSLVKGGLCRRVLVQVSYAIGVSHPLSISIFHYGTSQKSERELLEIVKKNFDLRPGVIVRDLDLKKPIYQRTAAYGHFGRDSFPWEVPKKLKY

Row | Substance | solubility in G1/S (log2) (HeLa Kyoto [1]) | solubility change mitosis (log2) (HeLa Kyoto [2]) | thermal stability score (HeLa Kyoto [3]; [5]) | thermal stability score (HeLa Kyoto [3]; cell cycle stage: mitosis) | melting temperature (HeLa Kyoto [4]; cell cycle stage: G1/S) | melting temperature (HeLa Kyoto [4]; cell cycle stage: mitosis)
1 | MLLPNILLTGTPGVGKTTLGKELASKSGLKYINVGDLAREEQLYDGYDEEYDCPILDEDRVVDELDNQMREGGVIVDYHGCDFFPERWFHIVFVLRTDTNVLYERLETRGYNEKKLTDNIQCEIFQVLYEEATASYKEEIVHQLPSNKPEELENNVDQILKWIEQWIKDHNS [AK6] | 0.193 | -0.0162 | 1.22 | 1.07 | 46.9 °C | 49.8 °C
2 | MFEIKKICCIGAGYVGGPTCSVIAHMCPEIRVTVVDVNESRINAWNSPTLPIYEPGLKEVVESCRGKNLFFSTNIDDAIKEADLVFISVNTPTKTYGMGKGRAADLKYIEACARRIVQNSNGYKIVTEKSTVPVRAAESIRRIFDANTKPNLNLQVLSNPEFLAEGTAIKDLKNPDRVLIGGDETPEGQRAVQALCAVYEHWVPREKILTTNTWSSELSKLAANAFLAQRISSINSISALCEATGADVEEVATAIGMDQRIGNKFLKASVGFGGSCFQKDVLNLVYLCEALNLPEVARYWQQVIDMNDYQRRRFASRIIDSLFNTVTDKKIAILGFAFKKDTGDTRESSSIYISKYLMDEGAHLHIYDPKVPREQIVVDLSHPGVSEDDQVSRLVTISKDPYEACDGAHAVVICTEWDMFKELDYERIHKKMLKPAFIFDGRRVLDGLHNELQTIGFQIETIGKKVSSKRIPYAPSGEIPKFSLQDPPNKKPKV [UGDH] | 0.126 | -0.0998 | 0.636 | 0.376 | 54 °C | 54.2 °C
3 | MGRSGKLPSGVSAKLKRWKKGHSSDSNPAICRHRQAARSRFFSRPSGRSDLTVDAVKLHNELQSGSLRLGKSEAPETPMEEEAELVLTEKSSGTFLSGLSDCTNVTFSKVQRFWESNSAAHKEICAVLAAVTEVIRSQGGKETETEYFAALMTTMEAVESPESLAAVAYLLNLVLKRVPSPVLIKKFSDTSKAFMDIMSAQASSGSTSVLRWVLSCLATLLRKQDLEAWGYPVTLQVYHGLLSFTVHPKPKIRKAAQHGVCSVLKGSEFMFEKAPAHHPAAISTAKFCIQEIEKSGGSKEATTTLHMLTLLKDLLPCFPEGLVKSCSETLLRVMTLSHVLVTACAMQAFHSLFHARPGLSTLSAELNAQIITALYDYVPSENDLQPLLAWLKVMEKAHINLVRLQWDLGLGHLPRFFGTAVTCLLSPHSQVLTAATQSLKEILKECVAPHMADIGSVTSSASGPAQSVAKMFRAVEEGLTYKFHAAWSSVLQLLCVFFEACGRQAHPVMRKCLQSLCDLRLSPHFPHTAALDQAVGAAVTSMGPEVVLQAVPLEIDGSEETLDFPRSWLLPVIRDHVQETRLGFFTTYFLPLANTLKSKAMDLAQAGSTVESKIYDTLQWQMWTLLPGFCTRPTDVAISFKGLARTLGMAISERPDLRVTVCQALRTLITKGCQAEADRAEVSRFAKNFLPILFNLYGQPVAAGDTPAPRRAVLETIRTYLTITDTQLVNSLLEKASEKVLDPASSDFTRLSVLDLVVALAPCADEAAISKLYSTIRPYLESKAHGVQKKAYRVLEEVCASPQGPGALFVQSHLEDLKKTLLDSLRSTSSPAKRPRLKCLLHIVRKLSAEHKEFITALIPEVILCTKEVSVGARKNAFALLVEMGHAFLRFGSNQEEALQCYLVLIYPGLVGAVTMVSCSILALTHLLFEFKGLMGTSTVEQLLENVCLLLASRTRDVVKSALGFIKVAVTVMDVAHLAKHVQLVMEAIGKLSDDMRRHFRMKLRNLFTKFIRKFGFELVKRLLPEEYHRVLVNIRKAEARAKRHRALSQAAVEEEEEEEEEEEPAQGKGDSIEEILADSEDEEDNEEEERSRGKEQRKLARQRSRAWLKEGGGDEPLNFLDPKVAQRVLATQPGPGRGRKKDHGFKVSADGRLIIREEADGNKMEEEEGAKGEDEEMADPMEDVIIRNKKHQKLKHQKEAEEEELEIPPQYQAGGSGIHRPVAKKAMPGAEYKAKKAKGDVKKKGRPDPYAYIPLNRSKLNRRKKMKLQGQFKGLVKAARRGSQVGHKNRRKDRRP [RRP12] | -0.758 | 0.248 | 3.24 | 7.79 | 46.3 °C | 49 °C
4 | MAT2A | -0.00612 | -0.123 | -0.032 | 0.349 | 57 °C | 57.3 °C
5 | MSDEREVAEAATGEDASSPPPKTEAASDPQHPAASEGAAAAAASPPLLRCLVLTGFGGYDKVKLQSRPAAPPAPGPGQLTLRLRACGLNFADLMARQGLYDRLPPLPVTPGMEGAGVVIAVGEGVSDRKAGDRVMVLNRSGMWQEEVTVPSVQTFLIPEAMTFEEAAALLVNYITAYMVLFDFGNLQPGHSVLVHMAAGGVGMAAVQLCRTVENVTVFGTASASKHEALKENGVTHPIDYHTTDYVDEIKKISPKGVDIVMDPLGGSDTAKGYNLLKPMGKVVTYGMANLLTGPKRNLMALARTWWNQFSVTALQLLQANRAVCGFHLGYLDGEVELVSGVVARLLALYNQGHIKPHIDSVWPFEKVADAMKQMQEKKNVGKVLLVPGPEKEN [VAT1] | 0.232 | -0.125 | -0.577 | -3.49 | 55.9 °C | 55.3 °C
6 | MALNKNHSEGGGVIVNNTESILMSYDHVELTFNDMKNVPEAFKGTKKGTVYLTPYRVIFLSKGKDAMQSFMMPFYLMKDCEIKQPVFGANYIKGTVKAEAGGGWEGSASYKLTFTAGGAIEFGQRMLQVASQASRGEVPSGAYGYSYMPSGAYVYPPPVANGMYPCPPGYPYPPPPPEFYPGPPMMDGAMGYVQPPPPPYPGPMEPPVSGPDVPSTPAAEAKAAEAAASAYYNPGNPHNVYMPTSQPPPPPYYPPEDKKTQ [WBP2] | 0.283 | -0.0665 | 0.182 | -1.41 | 54.1 °C | 54.5 °C

From the supplement of paper PMC5998384
